The text below walks through data of PMC6683157.

Data set [1] addresses T1, Csm2 (wild type);Psy3 (wild type) (Saccharomyces cerevisiae;Saccharomyces cerevisiae) (UniProt P40465+Q12318).
T1 sequence 1: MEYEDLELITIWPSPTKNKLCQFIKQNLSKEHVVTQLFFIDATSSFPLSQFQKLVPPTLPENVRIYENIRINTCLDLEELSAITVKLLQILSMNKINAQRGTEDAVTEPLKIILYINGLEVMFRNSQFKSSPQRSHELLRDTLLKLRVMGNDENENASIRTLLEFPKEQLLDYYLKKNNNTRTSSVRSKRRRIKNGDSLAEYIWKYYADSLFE
T1 sequence 2: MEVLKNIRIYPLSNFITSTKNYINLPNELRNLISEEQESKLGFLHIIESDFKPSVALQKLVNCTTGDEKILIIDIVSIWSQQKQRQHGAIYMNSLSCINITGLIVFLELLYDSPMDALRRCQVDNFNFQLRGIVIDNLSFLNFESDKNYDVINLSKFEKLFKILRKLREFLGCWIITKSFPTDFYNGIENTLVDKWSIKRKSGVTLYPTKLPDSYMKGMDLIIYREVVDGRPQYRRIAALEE
The data set can be described thus: fluorescence anisotropy. To be noted: heparin preparation, Anisotropy: 20 mM Tris pH 8.0, 20-25 nM DNA (2.5-5 nM in Fig 4d), EMSA: 25 mM Tris-HCl pH 8.0, 50 mM NaCl. Background: In fluorescence polarisation assays a small probe gives low polarisation when free and higher when bound to something large.

In data set [2] the target is T2, Csm2 (wild type);Psy3 (wild type);Shu1;Shu2 (Saccharomyces cerevisiae;Saccharomyces cerevisiae;Saccharomyces cerevisiae;Saccharomyces cerevisiae) (UniProt P40465+Q12318+P38751+P38957).
T2 sequence 1: T1 sequence 1
T2 sequence 2: T1 sequence 2
T2 sequence 3: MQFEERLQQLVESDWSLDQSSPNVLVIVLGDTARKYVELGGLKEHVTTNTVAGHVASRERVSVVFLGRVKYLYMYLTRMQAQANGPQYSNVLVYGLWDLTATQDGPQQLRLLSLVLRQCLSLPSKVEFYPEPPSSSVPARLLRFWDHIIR
T2 sequence 4: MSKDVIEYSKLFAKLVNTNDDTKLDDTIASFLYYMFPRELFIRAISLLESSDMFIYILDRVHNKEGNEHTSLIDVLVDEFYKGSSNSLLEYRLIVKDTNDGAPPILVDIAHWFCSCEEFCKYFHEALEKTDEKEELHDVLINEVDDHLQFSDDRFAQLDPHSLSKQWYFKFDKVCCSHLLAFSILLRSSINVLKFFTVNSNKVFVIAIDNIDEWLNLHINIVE
Briefly: fluorescence anisotropy. To be noted: 5 nM DNA, quadratic fit; N21 of strand 1 = THF abasic analog (ssDNA at ss/ds junction); Anisotropy: 20 mM Tris pH 8.0, 20-25 nM DNA (2.5-5 nM in Fig 4d), protein titrated from 1 M NaCl stock; EMSA: 25 mM Tris-HCl pH 8.0, 50 mM NaCl, 1 mM DTT ….

[3] abbreviates: N20 of strand 1 = THF abasic analog, protein titrated from 1 M NaCl …, 1 mM DTT, 100 u.
Where [4] appears, read: N31 of strand 1 = THF abasic analog, protein titrated from 1 M NaCl …, 1 mM DTT, 100 u.

The Kd is the free concentration of one partner at which half of the binding sites on the other are occupied at equilibrium, for simple one-to-one binding. A higher Kd goes with a looser complex. The sequence “TTTTTTTTTTTTTTTTTTTNCTTGACAAGCTTGCGCACTG / CAGTGCGCAAGCTTGTCAAGTTTTTTTTTTTTTTTTTTTT [AP2 double-flap]” showed a Kd in data set [1] (setting [3]) of 127 nM. Take “CAGTGCCGAAGCTTGTCAAGTTTTTTTTTTNTTTTTTTTT / TTTTTTTTTTTTTTTTTTTTCTTGACAAGCTTGCGCACTG [AP5 double-flap]”: the Kd in data set [1] (setting [4]) worked out at 142 nM. Turning to “CAGTGCCGAAGCTTGTCAAGNTTTTTTTTTTTTTTTTTTT / TTTTTTTTTTTTTTTTTTTTCTTGACAAGCTTGCGCACTG [AP6 double-flap]”, the Kd in data set [1] (text gives 71, N21 of strand 1 = THF abasic analog (ssDNA at ss/ds junction), protein titrated from 1 M NaCl stock, 1 mM DTT …) came to 72 nM; in data set [2], 72 nM. With “TTTTTTTTTTTTTTTTTTTTCTTGACAAGCNTGCGCACTG / CAGTGCGCAAGCTTGTCAAGTTTTTTTTTTTTTTTTTTTT [AP4 double-flap]”, in data set [1] (setting [4]), the Kd was found to be 131 nM. In data set [1] (N10 of strand 1 = THF abasic analog (in dsDNA), protein titrated from 1 M NaCl stock, 1 mM DTT …), “CAGTGCCGANGCTTGTCAAGTTTTTTTTTTTTTTTTTTTT / TTTTTTTTTTTTTTTTTTTTCTTGACAAGCTTGCGCACTG [AP8 double-flap]” came in with a Kd of 153 nM.

Take “TTTTTTTTTTTTTTTTTTTTNTTGACAAGCTTGCGCACTG / CAGTGCGCAAGCTTGTCAAGTTTTTTTTTTTTTTTTTTTT [AP3 double-flap]”: in data set [1] (N21 of strand 1 = THF abasic analog, protein titrated from 1 M NaCl …, 1 mM DTT, 100 u), the Kd turned out to be 104 nM.

Consider “TTTTTTTTTNTTTTTTTTTTCTTGACAAGCTTGCGCACTG / CAGTGCGCAAGCTTGTCAAGTTTTTTTTTTTTTTTTTTTT [AP1 double-flap]”, for which the Kd in data set [1] (N10 of strand 1 = THF abasic analog (dSpacer), protein titrated from 1 M NaCl stock, 1 mM DTT …) was 105 nM. Turning to “CAGTGCCGAAGCTTGTCAANTTTTTTTTTTTTTTTTTTTT / TTTTTTTTTTTTTTTTTTTTCTTGACAAGCTTGCGCACTG [AP7 double-flap]”, in data set [1] (setting [3]), the Kd was found to be 112 nM.
